{"source": "paper PMC10786891", "about": "“Massively parallel profiling of RNA-targeting CRISPR-Cas13d”", "data": [{"target": "T1, EsCas13d, nuclease-dead (Eubacterium siraeum, UniProt B0MS50, R295A;H300A;R849A;H854A)", "T1 sequence": "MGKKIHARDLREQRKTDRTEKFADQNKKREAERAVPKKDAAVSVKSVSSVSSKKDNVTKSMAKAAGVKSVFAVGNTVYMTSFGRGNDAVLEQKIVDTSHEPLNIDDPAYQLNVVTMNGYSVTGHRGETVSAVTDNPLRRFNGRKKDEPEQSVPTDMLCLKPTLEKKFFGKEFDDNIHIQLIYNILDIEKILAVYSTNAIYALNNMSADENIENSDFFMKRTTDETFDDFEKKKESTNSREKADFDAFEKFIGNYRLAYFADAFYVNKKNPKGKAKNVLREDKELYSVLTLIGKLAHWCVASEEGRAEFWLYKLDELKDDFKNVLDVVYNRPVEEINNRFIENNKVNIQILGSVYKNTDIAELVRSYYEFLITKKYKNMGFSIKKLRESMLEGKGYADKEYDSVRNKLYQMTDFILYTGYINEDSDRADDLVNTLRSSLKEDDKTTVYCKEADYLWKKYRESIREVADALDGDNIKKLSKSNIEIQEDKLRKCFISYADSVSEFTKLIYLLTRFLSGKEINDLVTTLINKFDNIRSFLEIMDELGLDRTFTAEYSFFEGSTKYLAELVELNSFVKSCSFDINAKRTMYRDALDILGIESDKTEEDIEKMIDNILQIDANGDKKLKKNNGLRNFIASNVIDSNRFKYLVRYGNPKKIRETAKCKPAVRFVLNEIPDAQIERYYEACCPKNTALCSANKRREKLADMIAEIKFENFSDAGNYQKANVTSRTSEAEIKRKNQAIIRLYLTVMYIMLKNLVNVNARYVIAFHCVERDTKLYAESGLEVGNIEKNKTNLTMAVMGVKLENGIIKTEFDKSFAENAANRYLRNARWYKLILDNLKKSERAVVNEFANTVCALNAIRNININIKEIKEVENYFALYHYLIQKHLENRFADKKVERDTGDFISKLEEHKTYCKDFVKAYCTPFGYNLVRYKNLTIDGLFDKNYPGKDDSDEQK", "test": "crRNA (strand 1, pre-loaded); Mg2+; 40 mM Tris-HCl pH 7.5, 150 mM NaCl, 6 mM MgCl2, 1 mM DTT, 0.1% Tween-20, 0.2 mg/ml BSA; 25 C; 10 min per concentration, then washed", "conditions": "tags: His6-TwinStrep-SUMO cleaved; N-terminal SNAP kept (SNAP-Surface 488); label: 3' end held by stalled T7 RNA polymerase", "units": {"Kd": "nM"}, "values": [{"binder": "target 1 insC 3' of 18,insA 3' of 4 (mixed) RNA 1: CACCCGUGCAAAAAUGCAGGGGUCUAAAACUGAGCGGAUAACCUCUCUAUGG RNA 2: GGGAAUGGAUCCACAUCUACGAAUUCGUACCAUACGAGAGGUUAUCCGCAUCACCGAGAUCGGAAGAGCACACGU", "Kd": "38 ± 9"}, {"binder": "target 1 C6A,C21U (mixed) RNA 1: CACCCGUGCAAAAAUGCAGGGGUCUAAAACUGAGCGGAUAACCUCUCUAUGG RNA 2: GGGAAUGGAUCCACAUCUACGAAUUCGUACUAUAGAGAGGUUAUCAGCUCACCGAGAUCGGAAGAGCACACGU", "Kd": "6.48 ± 0.21"}, {"binder": "target 1 complement block 3-10 (mixed) RNA 1: CACCCGUGCAAAAAUGCAGGGGUCUAAAACUGAGCGGAUAACCUCUCUAUGG RNA 2: GGGAAUGGAUCCACAUCUACGAAUUCGUACCAUAGAGAGGUAUAGGCGACACCGAGAUCGGAAGAGCACACGU", "Kd": "12.2 ± 0.34"}, {"binder": "target 1 insA 3' of 22,insC 3' of 16 (mixed) RNA 1: CACCCGUGCAAAAAUGCAGGGGUCUAAAACUGAGCGGAUAACCUCUCUAUGG RNA 2: GGGAAUGGAUCCACAUCUACGAAUUCGUACACAUAGACGAGGUUAUCCGCUCACCGAGAUCGGAAGAGCACACGU", "Kd": "~60"}, {"binder": "target 1 insA 3' of 11,insC 3' of 5 (mixed) RNA 1: CACCCGUGCAAAAAUGCAGGGGUCUAAAACUGAGCGGAUAACCUCUCUAUGG RNA 2: GGGAAUGGAUCCACAUCUACGAAUUCGUACCAUAGAGAGGUAUAUCCGCCUCACCGAGAUCGGAAGAGCACACGU", "Kd": "12.7 ± 1.2"}, {"binder": "target 1 C4U,G12C (mixed) RNA 1: CACCCGUGCAAAAAUGCAGGGGUCUAAAACUGAGCGGAUAACCUCUCUAUGG RNA 2: GGGAAUGGAUCCACAUCUACGAAUUCGUACCAUAGAGAGCUUAUCCGUUCACCGAGAUCGGAAGAGCACACGU", "Kd": "22.4 ± 3.3"}, {"binder": "target 1 A9U,U10C (mixed) RNA 1: CACCCGUGCAAAAAUGCAGGGGUCUAAAACUGAGCGGAUAACCUCUCUAUGG RNA 2: GGGAAUGGAUCCACAUCUACGAAUUCGUACCAUAGAGAGGUCUUCCGCUCACCGAGAUCGGAAGAGCACACGU", "Kd": "8.6 ± 0.9"}, {"binder": "target 1 insC 3' of 22,insA 3' of 11 (mixed) RNA 1: CACCCGUGCAAAAAUGCAGGGGUCUAAAACUGAGCGGAUAACCUCUCUAUGG RNA 2: GGGAAUGGAUCCACAUCUACGAAUUCGUACCCAUAGAGAGGUAUAUCCGCUCACCGAGAUCGGAAGAGCACACGU", "Kd": "33 ± 5"}, {"binder": "target 1 U10G,G12C (mixed) RNA 1: CACCCGUGCAAAAAUGCAGGGGUCUAAAACUGAGCGGAUAACCUCUCUAUGG RNA 2: GGGAAUGGAUCCACAUCUACGAAUUCGUACCAUAGAGAGCUGAUCCGCUCACCGAGAUCGGAAGAGCACACGU", "Kd": "22.7 ± 1.3"}, {"binder": "target 1 C6G,A14G (mixed) RNA 1: CACCCGUGCAAAAAUGCAGGGGUCUAAAACUGAGCGGAUAACCUCUCUAUGG RNA 2: GGGAAUGGAUCCACAUCUACGAAUUCGUACCAUAGAGGGGUUAUCGGCUCACCGAGAUCGGAAGAGCACACGU", "Kd": "13.5 ± 1.3"}, {"binder": "target 1 insG 3' of 9,insU 3' of 5 (mixed) RNA 1: CACCCGUGCAAAAAUGCAGGGGUCUAAAACUGAGCGGAUAACCUCUCUAUGG RNA 2: GGGAAUGGAUCCACAUCUACGAAUUCGUACCAUAGAGAGGUUAGUCCGUCUCACCGAGAUCGGAAGAGCACACGU", "Kd": "14.4 ± 0.9"}, {"binder": "target 1 insA 3' of 12,insU 3' of 5 (mixed) RNA 1: CACCCGUGCAAAAAUGCAGGGGUCUAAAACUGAGCGGAUAACCUCUCUAUGG RNA 2: GGGAAUGGAUCCACAUCUACGAAUUCGUACCAUAGAGAGGAUUAUCCGUCUCACCGAGAUCGGAAGAGCACACGU", "Kd": "35.4 ± 2.8"}, {"binder": "target 1 insC 3' of 20,insC 3' of 12 (mixed) RNA 1: CACCCGUGCAAAAAUGCAGGGGUCUAAAACUGAGCGGAUAACCUCUCUAUGG RNA 2: GGGAAUGGAUCCACAUCUACGAAUUCGUACCACUAGAGAGGCUUAUCCGCUCACCGAGAUCGGAAGAGCACACGU", "Kd": "11.9 ± 2.4"}, {"binder": "target 1 del22 (mixed) RNA 1: CACCCGUGCAAAAAUGCAGGGGUCUAAAACUGAGCGGAUAACCUCUCUAUGG RNA 2: GGGAAUGGAUCCACAUCUACGAAUUCGUACAUAGAGAGGUUAUCCGCUCACCGAGAUCGGAAGAGCACACGU", "Kd": "26.6 ± 1.7"}, {"binder": "target 1 insA 3' of 12,insG 3' of 7 (mixed) RNA 1: CACCCGUGCAAAAAUGCAGGGGUCUAAAACUGAGCGGAUAACCUCUCUAUGG RNA 2: GGGAAUGGAUCCACAUCUACGAAUUCGUACCAUAGAGAGGAUUAUCGCGCUCACCGAGAUCGGAAGAGCACACGU", "Kd": "27.7 ± 2"}, {"binder": "target 1 insA 3' of 19,insU 3' of 7 (mixed) RNA 1: CACCCGUGCAAAAAUGCAGGGGUCUAAAACUGAGCGGAUAACCUCUCUAUGG RNA 2: GGGAAUGGAUCCACAUCUACGAAUUCGUACCAUAAGAGAGGUUAUCUCGCUCACCGAGAUCGGAAGAGCACACGU", "Kd": "41.8 ± 2.3"}, {"binder": "target 1 C6U,A16C (mixed) RNA 1: CACCCGUGCAAAAAUGCAGGGGUCUAAAACUGAGCGGAUAACCUCUCUAUGG RNA 2: GGGAAUGGAUCCACAUCUACGAAUUCGUACCAUAGCGAGGUUAUCUGCUCACCGAGAUCGGAAGAGCACACGU", "Kd": "40 ± 5"}, {"binder": "target 1 insU 3' of 13,insA 3' of 11 (mixed) RNA 1: CACCCGUGCAAAAAUGCAGGGGUCUAAAACUGAGCGGAUAACCUCUCUAUGG RNA 2: GGGAAUGGAUCCACAUCUACGAAUUCGUACCAUAGAGAGUGUAUAUCCGCUCACCGAGAUCGGAAGAGCACACGU", "Kd": "12.3 ± 1.4"}, {"binder": "target 1 U8A,G12A (mixed) RNA 1: CACCCGUGCAAAAAUGCAGGGGUCUAAAACUGAGCGGAUAACCUCUCUAUGG RNA 2: GGGAAUGGAUCCACAUCUACGAAUUCGUACCAUAGAGAGAUUAACCGCUCACCGAGAUCGGAAGAGCACACGU", "Kd": "8.6 ± 0.8"}, {"binder": "target 1 C2G,U8G (mixed) RNA 1: CACCCGUGCAAAAAUGCAGGGGUCUAAAACUGAGCGGAUAACCUCUCUAUGG RNA 2: GGGAAUGGAUCCACAUCUACGAAUUCGUACCAUAGAGAGGUUAGCCGCUGACCGAGAUCGGAAGAGCACACGU", "Kd": "17.4 ± 0.8"}, {"binder": "target 1 C6G,U19A (mixed) RNA 1: CACCCGUGCAAAAAUGCAGGGGUCUAAAACUGAGCGGAUAACCUCUCUAUGG RNA 2: GGGAAUGGAUCCACAUCUACGAAUUCGUACCAAAGAGAGGUUAUCGGCUCACCGAGAUCGGAAGAGCACACGU", "Kd": "35 ± 5"}, {"binder": "target 1 insC 3' of 8,insA 3' of 4 (mixed) RNA 1: CACCCGUGCAAAAAUGCAGGGGUCUAAAACUGAGCGGAUAACCUCUCUAUGG RNA 2: GGGAAUGGAUCCACAUCUACGAAUUCGUACCAUAGAGAGGUUAUCCCGCAUCACCGAGAUCGGAAGAGCACACGU", "Kd": "12 ± 0.9"}, {"binder": "target 1 U11A,G13C (mixed) RNA 1: CACCCGUGCAAAAAUGCAGGGGUCUAAAACUGAGCGGAUAACCUCUCUAUGG RNA 2: GGGAAUGGAUCCACAUCUACGAAUUCGUACCAUAGAGACGAUAUCCGCUCACCGAGAUCGGAAGAGCACACGU", "Kd": "42 ± 7"}, {"binder": "target 1 insC 3' of 13,insA 3' of 5 (mixed) RNA 1: CACCCGUGCAAAAAUGCAGGGGUCUAAAACUGAGCGGAUAACCUCUCUAUGG RNA 2: GGGAAUGGAUCCACAUCUACGAAUUCGUACCAUAGAGAGCGUUAUCCGACUCACCGAGAUCGGAAGAGCACACGU", "Kd": "6.7 ± 1.3"}]}]}
